Laboratory results published in US20100173334A1.

Key:
[1] = molecular target: haptoglobin β chain derived from cancer (serum or cells of cancer patients) (human) (UniProt P00738); assay: serum Western blot; urothelial cancer, superficial (n=18)
[2] = molecular target: haptoglobin β chain derived from cancer (serum or cells of cancer patients) (human) (UniProt P00738); assay: serum Western blot; the same 15 patients after radical prostatectomy
[3] = molecular target: haptoglobin β chain derived from cancer (serum or cells of cancer patients) (human) (UniProt P00738); assay: serum Western blot; urothelial cancer, muscle invasive or advanced (n=19)
[4] = molecular target: haptoglobin β chain derived from cancer (serum or cells of cancer patients) (human) (UniProt P00738); assay: serum Western blot; 15 prostate cancer patients before radical prostatectomy
[5] = molecular target: haptoglobin β chain derived from cancer (serum or cells of cancer patients) (human) (UniProt P00738); assay: serum Western blot, Scion image densitometry; mean of 62 patients with early prostate cancer
[6] = molecular target: haptoglobin β chain derived from benign disease (serum of patients with benign prostatic disease) (human) (UniProt P00738); assay: serum Western blot, Scion image densitometry; mean of 43 patients with benign prostatic disease
[7] = molecular target: haptoglobin β chain derived from cancer (serum or cells of cancer patients) (human) (UniProt P00738); assay: sandwich ELISA: RM2 captured on anti-mouse IgM plate, diluted serum, detection with rabbit anti-haptoglobin polyclonal; mean of 12 sera of prostate cancer
[8] = molecular target: haptoglobin β chain derived from benign disease (serum of patients with benign prostatic disease) (human) (UniProt P00738); assay: sandwich ELISA: RM2 captured on anti-mouse IgM plate, diluted serum, detection with rabbit anti-haptoglobin polyclonal; mean of 12 sera of benign prostatic disease

monoclonal antibody RM2
RM2 reaction (the value normalized to RM2 reaction to 75 kDa protein) (ratio of band density to the 75 kDa band) [1]: 0.31 | RM2 reaction level to GPX (normalized to 75 kDa band) (ratio of band density to the 75 kDa band) [2]: 0.6 | RM2 reaction (the value normalized to RM2 reaction to 75 kDa protein) (ratio of band density to the 75 kDa band) [3]: 0.96 | RM2 reaction level to GPX (normalized to 75 kDa band) (ratio of band density to the 75 kDa band) [4]: 0.92 | RM2 reaction level to GPX (normalized to 75 kDa band) (ratio of band density to the 75 kDa band) [5]: 0.96 | RM2 reaction level to GPX (normalized to 75 kDa band) (ratio of band density to the 75 kDa band) [6]: 0.35 | absorbance at 450 nm (absorbance at 450 nm) [7]: 1.1 | absorbance at 450 nm (absorbance at 450 nm) [8]: 0.58
